B1: NEK8 (parent)
chain: YTFGSNQHGQLGTNTRRGSRAPCK
B2: ZNF207 (parent)
chain: CHICHKKLYTGPGLAIHCMQVHKE

Variants of: B1
Experiment: protein stability index of a GFP-peptide fusion (GPS, HEK-293T) (PSI 1-6); higher = more stable
Conditions: c terminus: a fixed tail appended
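Also: lentivirally expressed fusions sorted by FACS into six bins by GFP to DsRed ratio, PSI derived from sequencing read proportions per bin multiplied by bin number.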

Protein stability index of substitutions, site by site:
T2: K 3.83, H 1.95, Q 3.5, S 4.31, I 2.44, M 4.5, P 4.18, A 2.77, L 3.61, Y 4.24, E 4.78, N 4.61, W 3.32, G 4.33, D 4.43, F 3.25, V 2.36, C 2.88, R 4.75
F3: C 3.58, K 4.32, P 2.02, V 3.98, W 2.06, I 3.89, Y 3.54, N 3.95, Q 3.69, R 3.92, L 3.99, M 4.13, S 3.2, H 3.94, T 3.77, D 4.11, E 4.32, A 3.31, G 2.29
Y1: K 4.79, I 4.34, N 5.24, C 4.11, F 3.66, R 4.64, L 4.13, G 5.09, S 4.89, P 4.52, D 4.96, M 4.31, H 4.54, E 4.47, Q 4.99, A 4.81, V 4.6, W 4.28, T 4.49
G4: A 3.44, D 4.39, C 2.91

Variants of: B2
Experiment: as above
Conditions: c terminus: a fixed tail appended

Protein stability index: each site, then its substitutions
H22: F 1.92, K 2.41, E 2.67, D 3.04, C 2.64, I 2.41, M 2.78, P 3.15, R 2.11, W 1.68, V 2.03, S 1.85, Y 1.45, T 2.48, A 2.65, L 2.11, N 2.35, Q 1.8, G 1.88
V21: H 3.44, C 4.09, S 3.71, A 3.84, L 3, Q 2.89, F 3.35, G 3.96, W 2.89, M 3.72, P 3.21, I 2.49, K 3.27, T 3.7, N 3.48, Y 3.93, E 3.6, D 3.5, R 2.84
E24: C 3.29, F 2.53, K 2.65, P 2.63, G 2.55, T 2.96, Y 2.74, L 2.6, S 3.17, I 3.47, D 2.84, W 2.49, Q 2.85, M 2.11, R 2.34, N 2.44, A 2.66, H 2.18, V 3.65
Q20: H 4.04, R 2.62, F 3.4, N 3.85, W 2.92, A 3.4, D 3.28, C 4.79, K 2.75, M 3.65, V 3.88, L 4, Y 3.36, E 3.95, P 2.86, T 3.56, I 3.61, S 1.93, G 3.13
K23: I 2.21, V 3.19, M 3.49, E 3.95, C 3.06, N 4.12, H 3.48, A 3.14, T 2.61, P 3.04, W 2.25, L 2.38, G 3.68, F 2.04, Q 3.52, D 3.87, R 3.13, Y 2.19, S 3.35
M19: I 3.47, N 3.9, S 4.03, L 2.52, W 2.48, R 3.41, K 3.93, V 2.94, Q 3.81, P 3.3, Y 2.94, T 3.73
